Reference: the supplement of paper PMC10567573

B1: TRAF3IP2 (parent)
chain: PRPPSNPPARGTLKTSNLPEELRK
B2: PPP2R2C (parent)
chain: YSSSKGSLRLCDMRAAALCDKHSK

Variants of: B1
Experiment: protein stability index of a GFP-peptide fusion (GPS, HEK-293T) (PSI 1-6); higher = more stable
Conditions: c terminus: a fixed tail appended
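Further: lentivirally expressed fusions sorted by FACS into six bins by GFP to DsRed ratio, PSI derived from sequencing read proportions per bin multiplied by bin number.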

Protein stability index, by site and new letter:
T15: Q 4.48 | L 4.29 | W 3.67 | G 4.95 | K 4.82 | N 4.53 | Y 4.64 | F 4.29 | H 4.99 | S 4.79 | I 4.14 | R 4.52 | P 4.64 | V 4.48 | M 4.43
K24: H 4.79 | Q 4.66 | R 4.75 | W 4.19 | P 3.9 | L 4.31 | A 4.86 | C 4.9 | V 4.53 | S 4.7 | D 5.14 | N 4.87 | Y 3.78 | G 4.05 | T 4.8 | M 4.26 | I 4.24 | E 4.99 | F 4.33
N17: F 4.42 | Y 4.77 | D 5.09 | W 3.51 | V 3.94 | G 4.82 | I 4.55 | K 4.07 | E 5.13 | M 4.8 | H 4.58 | P 5.08 | L 4.49 | C 4.29 | A 5.05 | S 4.91 | T 4.21
L22: W 4.25 | I 4.56 | D 5.22 | P 5.15 | S 4.96 | H 5.11 | Y 4.47 | F 4.24 | N 4.93 | G 4.15 | Q 5.39 | M 4.75 | K 4.97 | A 4.55 | V 3.16 | T 5.4 | C 5.65 | E 5.61 | R 4.82
E20: T 4.25 | W 4 | I 3.44 | K 4.2 | R 4.48 | A 4.41 | L 4.1 | H 3.96 | D 4.81 | S 4.52 | V 3.41 | Q 4.67 | P 4.21 | N 4.61 | Y 3.95 | C 4.44 | G 5.51 | F 4.06 | M 4.14
P19: N 4.83 | R 4.14 | F 4.28 | Q 4.75 | M 4.47 | K 4.59 | A 4.48 | H 3.36 | S 4.75 | Y 3.54 | G 4.36 | V 4.09 | D 4.89 | W 3.98 | C 4.7 | I 4 | T 4.14 | L 4.43 | E 5.1
L18: Y 5.14 | G 4.96 | A 4.92 | N 4.71 | H 4.8 | K 5.26 | T 4.96 | I 4.38 | W 4.2 | S 5.62 | V 5.06 | F 4.72 | D 4.67 | M 4.5 | Q 5.08 | R 4.56
E21: T 4.46 | K 4.26 | M 3.06 | P 3.62 | G 4.36 | Q 5.04 | N 4.6 | W 3.69 | V 3.74 | A 4.6 | Y 4.23 | R 4.2 | C 4.19 | I 4.29 | F 3.73 | L 4.26 | S 3.97 | H 3.94 | D 4.71
S16: C 4.19 | F 4.47 | A 4.41 | I 4.49 | H 4.33 | M 4.7 | Y 4.48 | N 4.37 | L 4.75 | G 4.79 | E 4.95 | R 4.79 | D 4.83 | W 3.47 | K 4.74 | T 4.92 | V 4.17 | Q 4.48
R23: P 5.21 | K 4.92 | A 4.7 | D 4.9 | N 5.2 | S 5.16 | I 4.39 | Y 4.47 | H 4.7 | M 4.31 | Q 5.23 | L 4.19 | F 3.92 | C 4.64 | V 4.13 | E 4.94 | G 4.7 | W 3.42 | T 4.77

Variants of: B2
Experiment: as above
Conditions: c terminus: a fixed tail appended

Protein stability index: each site, then its substitutions
S4: W 1.63 | D 2.96 | P 2.57 | E 2.78
Y1: Q 3.95 | D 4.63 | A 3.93 | S 3.74 | N 3.81 | V 3.56
A16: H 2.06 | R 2.04 | V 1.82 | T 1.97 | C 2.56 | L 1.3 | N 2.05
A17: D 1.51 | W 2.33 | C 2.06 | K 1.85 | M 1.79 | I 1.39
K5: Y 1.52 | P 2.03 | N 1.43 | R 1.85
R9: V 2.91 | L 3.61 | P 3.11 | D 4.21 | I 1.7
S3: D 2.92 | I 3.06 | F 2.39 | K 2.37 | G 1.95
S23: L 1.93 | F 2.57 | A 1.79 | C 1.12 | N 1.43
C11: G 2.92 | L 2.36 | Q 2.97 | F 1.67 | K 3.07 | N 3.72 | V 1.8 | R 3.31 | I 1.42
A15: N 2.54 | D 1.72 | M 2.72 | V 1.6 | E 2.61
D20: P 2.25 | N 2.21 | S 1.81 | H 2.64 | M 1.98 | Q 2.33 | F 2.19 | Y 1.96
M13: Y 3.27 | S 1.65 | T 2.21 | D 2.37 | N 2.05 | E 2.49 | V 2.07 | F 1.46
L18: W 1.44 | N 1.65 | Q 2.17 | V 2.02 | C 1.55 | I 1.96 | H 2.03
R14: D 1.55 | Q 1.27 | E 2.3 | C 2.89 | L 2.18 | S 2.02
C19: I 2.03 | G 1.25 | L 1.55 | S 1.73 | D 2.3 | Y 2.01 | A 1.74
D12: Y 2.1 | N 2.63 | S 2.29 | P 2.25
G6: A 1.91 | M 1.85 | I 2.31 | D 2.73 | V 2.21 | R 2.05 | F 1.81 | K 2.2
L8: T 1.97 | S 2.02 | I 1.78 | E 2.41 | R 1.51 | M 1.79 | V 1.95
S2: K 3.58 | M 1.72 | G 2.46 | F 2.8 | Q 1.94 | Y 2.94 | R 2.98 | I 1.54 | C 1.92
L10: Y 2.02 | P 3.52 | K 3.1 | E 4.47 | T 3.35 | S 3.54 | W 2.21
K24: Y 1.52 | S 1.65 | A 1.85 | Q 1.64 | L 2.13 | F 1.36 | V 1.74
K21: H 2.01 | V 2.63 | G 2.12 | Q 1.82 | F 1.95 | N 1.9
S7: V 2.24 | E 1.56 | L 1.49 | P 1.89 | Q 2.04 | K 1.07 | I 1.34 | A 2.9
H22: W 2.05 | E 3.04 | F 1.53 | C 2.17 | N 2.04 | Q 1.53
